Assay results published in patent publication US20180371083A1 (Merck Sharp & Dohme, published 2018).
Each block holds one binder with its values, some of them ahead of it.

Tests used:
[1] = target: T1, human TIGIT expressed on cells (CHO-K1 transfectants; Jurkat over-expressing human TIGIT) (human, UniProt Q495A1 25-244); assay: cell-based or functional assay
T1 sequence: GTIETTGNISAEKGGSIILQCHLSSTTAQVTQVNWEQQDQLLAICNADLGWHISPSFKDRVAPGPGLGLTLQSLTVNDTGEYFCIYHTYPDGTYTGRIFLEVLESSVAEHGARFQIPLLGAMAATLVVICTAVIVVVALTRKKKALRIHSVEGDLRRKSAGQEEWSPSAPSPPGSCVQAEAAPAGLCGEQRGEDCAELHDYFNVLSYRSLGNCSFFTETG

[2] = target: T2, human TIGIT-His protein (extracellular domain of human TIGIT fused to His tag) (human, UniProt Q495A1 25-141); assay: SPR, Biacore T200; antibody captured on anti-mouse IgG, human TIGIT-His as analyte; 1:1 Langmuir fit
T2 construct: also called hTIGIT-His; hTIGIT-HIS
T2 sequence: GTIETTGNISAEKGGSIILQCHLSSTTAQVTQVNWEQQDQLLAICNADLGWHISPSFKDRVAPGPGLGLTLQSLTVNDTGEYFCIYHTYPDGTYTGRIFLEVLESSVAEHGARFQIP
Protocol: The kinetic binding activity of anti-human TIGIT antibodies 14D7 and 26B10 (made as described in Example 1) and of commercial antibody MBSA43 was measured by surface plasmon resonance using a Biacore T200 system (Biacore, GE Healthcare, Piscataway, N.J.). […] Mouse anti-human TIGIT clones, 14D7, 26B10 and MBSA43, were each injected over the immobilized anti-mouse surfaces at 1 μg/mL for a capture level of 40 RU. HBS-EP+ buffer (BR-1006-69) was used as the running buffer with a flow rate of 30 μL/min. Varying concentrations of human TIGIT-His protein, ranging from 0.29 nM to 40 nM, at a flow rate of 45 μL/min were injected over the antibody surfaces. Following each Mouse anti-human TIGIT injection cycle, the Series S CM5 chip surface was regenerated using one three-minute injection of 10 mM Glycine pH 1.7 at a flow rate of 10 μL/min.
Background subtraction binding sensorgrams were used for analyzing the rate constant of association (kₐ) and dissociation (kd), and the equilibrium dissociation constant KD. The resulting data sets were fitted with a 1:1 Langmuir Binding Model using the Biacore T200 evaluation software (version 2.0). Table 3 summarizes the affinities for the anti-human TIGIT antibodies to human TIGIT-His protein.

[3] = target: T1, human TIGIT expressed on cells (CHO-K1 …); assay: cell-based ELISA on CHO cells expressing human TIGIT (panel 'Binding to CHO-human TIGIT Cells')
[4] = target: T3, cynomolgous/rhesus TIGIT expressed on CHO-K1 cells (cynomolgous monkey / rhesus monkey); assay: cell-based ELISA on CHO cells expressing rhesus TIGIT (panel 'Binding to CHO-rhesus TIGIT Cells')
T3 construct: also called cyno/rhesus TIGIT; cyno/rhesus TIGIT-CHOK1 cells

[5] = target: T1, human TIGIT expressed on cells (CHO-K1 …); assay: cell-based ELISA blocking assay: binding of human CD155-huFc to CHO-hTIGIT cells in the presence of titrated antibody

T3 sequence (chain, as listed by the source): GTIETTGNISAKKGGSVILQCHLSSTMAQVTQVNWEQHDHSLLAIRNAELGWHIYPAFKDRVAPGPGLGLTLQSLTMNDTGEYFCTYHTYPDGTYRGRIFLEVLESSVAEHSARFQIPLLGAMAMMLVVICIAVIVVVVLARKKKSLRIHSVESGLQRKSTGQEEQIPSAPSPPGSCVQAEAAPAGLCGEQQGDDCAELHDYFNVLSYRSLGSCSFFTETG

- EC50, rescue of IL-2 in hTIGIT-Jurkat / THP-1 co-culture with CD155-Fc or CD112-Fc [1]: 170 ng/mL
- Kd [2]: 0.0046 nM
- EC50 (read off the curve) [3]: ~0.06 ng/mL
- EC50 (read off the curve) [4]: ~0.06 ng/mL
- IC50 (read off the curve) [5]: ~80000 ng/mL
B1: mouse anti-human TIGIT antibody 14D7 (clone MEB125.14D7) (antibody, V domains shown)
VH: EVKLEESGGGLVQPGGSMKLSCVASGFTFSGAWMDWVRQSPEKGLEWVAEIRTKVNNHATNYGESVKGRFTISRDDSKSSVYLQMNNLRAEDSGIYYCRGALYDGFYFDYWGQGTTLTVSS
VL: QIVLTQSPAIMSASPGEKVNLTCSASSSVSSGYLYWYQQKPGSSPKLWIYGTSTLASGVPARFSGSGSGTSYSLTISNMEAEDAASYFCHQWSSFPYTFGGGTKLEMK
notes: Mouse IgG1/kappa; also called 14D7 (mIgG1/K); MEB125.14D7.C1.C1

- EC50, rescue of IL-2 in hTIGIT-Jurkat / THP-1 co-culture with CD155-Fc or CD112-Fc [1]: 190 ng/mL
- Kd [2]: 0.14 nM
- EC50 (read off the curve) [3]: ~0.05 ng/mL
- EC50 (read off the curve) [4]: ~0.04 ng/mL
- IC50 (read off the curve) [5]: ~50000 ng/mL
B2: mouse anti-human TIGIT antibody 26B10 (clone MEB125.26B10) (antibody, V domains shown)
VH: EVQLQQSGPELVKPGASVKISCKTSGYTFTEFTMHWVKQSHGKSLEWIGGLKPDNGGISYNQKFKGRATLAVDKSSNTAYMELRSLTSEDSAVYYCARGAYYRYDADYWGQGTTLTVSS
VL: DIVLTQSHKFMSTSVGDRVSITCKASQDVKTAVAWYQQKSGQSPKLLIYSASYRNTGVPDRFTGSGSGTDFTFTIDSVQAEDLAVYFCQQHYSTPFTFGTGTKLELK
notes: Mouse IgG1/kappa; also called 26B10 (mIgG1/K)
